System: KDM4A-I71AzF
Assay: CASI: photo-crosslinking with HEK293T cell extracts, StrepTactin enrichment and LC-MS/MS proteomics;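 also: lysates from HEK293T cells pretreated with a KDM4 inhibitor to raise proteome methylation, affinity-purified after ±UV, gel-resolved, trypsin-digested, with exclusive unique peptides per protein averaged per condition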
Assay type: binding, human
Conditions: sheet "Final results but with 0.01"

B1: MCM6_HUMAN (protein, UniProt Q14566 1-821, looked up)
DNA replication licensing …: MDLAAAAEPGAGSQHLEVRDEVAEKCQKLFLDFLEEFQSSDGEIKYLQLAEELIRPERNTLVVSFVDLEQFNQQLSTTIQEEFYRVYPYLCRALKTFVKDRKEIPLAKDFYVAFQDLPTRHKIRELTSSRIGLLTRISGQVVRTHPVHPELVSGTFLCLDCQTVIRDVEQQFKYTQPNICRNPVCANRRRFLLDTNKSRFVDFQKVRIQETQAELPRGSIPRSLEVILRAEAVESAQAGDKCDFTGTLIVVPDVSKLSTPGARAETNSRVSGVDGYETEGIRGLRALGVRDLSYRLVFLACCVAPTNPRFGGKELRDEEQTAESIKNQMTVKEWEKVFEMSQDKNLYHNLCTSLFPTIHGNDEVKRGVLLMLFGGVPKTTGEGTSLRGDINVCIVGDPSTAKSQFLKHVEEFSPRAVYTSGKASSAAGLTAAVVRDEESHEFVIEAGALMLADNGVCCIDEFDKMDVRDQVAIHEAMEQQTISITKAGVKATLNARTSILAAANPISGHYDRSKSLKQNINLSAPIMSRFDLFFILVDECNEVTDYAIARRIVDLHSRIEESIDRVYSLDDIRRYLLFARQFKPKISKESEDFIVEQYKHLRQRDGSGVTKSSWRITVRQLESMIRLSEAMARMHCCDEVQPKHVKEAFRLLNKSIIRVETPDVNLDQEEEIQMEVDEGAGGINGHADSPAPVNGINGYNEDINQESAPKASLRLGFSEYCRISNLIVLHLRKVEEEEDESALKRSELVNWYLKEIESEIDSEEELINKKRIIEKVIHRLTHYDHVLIELTQAGLKGSTEGSESYEEDPYLVVNPNYLLED
**Q.** For B1, which “Fold change (+UV/-UV)” value is on record?
**A.** Its value is 0.75.

B2: MCM5_HUMAN (protein, UniProt P33992 2-734, looked up)
DNA replication licensing …: SGFDDPGIFYSDSFGGDAQADEGQARKSQLQRRFKEFLRQYRVGTDRTGFTFKYRDELKRHYNLGEYWIEVEMEDLASFDEDLADYLYKQPAEHLQLLEEAAKEVADEVTRPRPSGEEVLQDIQVMLKSDASPSSIRSLKSDMMSHLVKIPGIIIAASAVRAKATRISIQCRSCRNTLTNIAMRPGLEGYALPRKCNTDQAGRPKCPLDPYFIMPDKCKCVDFQTLKLQELPDAVPHGEMPRHMQLYCDRYLCDKVVPGNRVTIMGIYSIKKFGLTTSRGRDRVGVGIRSSYIRVLGIQVDTDGSGRSFAGAVSPQEEEEFRRLAALPNVYEVISKSIAPSIFGGTDMKKAIACLLFGGSRKRLPDGLTRRGDINLLMLGDPGTAKSQLLKFVEKCSPIGVYTSGKGSSAAGLTASVMRDPSSRNFIMEGGAMVLADGGVVCIDEFDKMREDDRVAIHEAMEQQTISIAKAGITTTLNSRCSVLAAANSVFGRWDETKGEDNIDFMPTILSRFDMIFIVKDEHNEERDVMLAKHVITLHVSALTQTQAVEGEIDLAKLKKFIAYCRVKCGPRLSAEAAEKLKNRYIIMRSGARQHERDSDRRSSIPITVRQLEAIVRIAEALSKMKLQPFATEADVEEALRLFQVSTLDAALSGTLSGVEGFTSQEDQEMLSRIEKQLKRRFAIGSQVSEHSIIKDFTKQKYPEHAIHKVLQLMLRRGEIQHRMQRKVLYRLK
**Q.** B2 was tested. Which “Fold change (+UV/-UV)” value did it give?
**A.** The value was 0.9167.

B3: DDX21_HUMAN (protein, UniProt Q9NR30 1-783, looked up)
Nucleolar RNA helicase 2: MPGKLRSDAGLESDTAMKKGETLRKQTEEKEKKEKPKSDKTEEIAEEEETVFPKAKQVKKKAEPSEVDMNSPKSKKAKKKEEPSQNDISPKTKSLRKKKEPIEKKVVSSKTKKVTKNEEPSEEEIDAPKPKKMKKEKEMNGETREKSPKLKNGFPHPEPDCNPSEAASEESNSEIEQEIPVEQKEGAFSNFPISEETIKLLKGRGVTFLFPIQAKTFHHVYSGKDLIAQARTGTGKTFSFAIPLIEKLHGELQDRKRGRAPQVLVLAPTRELANQVSKDFSDITKKLSVACFYGGTPYGGQFERMRNGIDILVGTPGRIKDHIQNGKLDLTKLKHVVLDEVDQMLDMGFADQVEEILSVAYKKDSEDNPQTLLFSATCPHWVFNVAKKYMKSTYEQVDLIGKKTQKTAITVEHLAIKCHWTQRAAVIGDVIRVYSGHQGRTIIFCETKKEAQELSQNSAIKQDAQSLHGDIPQKQREITLKGFRNGSFGVLVATNVAARGLDIPEVDLVIQSSPPKDVESYIHRSGRTGRAGRTGVCICFYQHKEEYQLVQVEQKAGIKFKRIGVPSATEIIKASSKDAIRLLDSVPPTAISHFKQSAEKLIEEKGAVEALAAALAHISGATSVDQRSLINSNVGFVTMILQCSIEMPNISYAWKELKEQLGEEIDSKVKGMVFLKGKLGVCFDVPTASVTEIQEKWHDSRRWQLSVATEQPELEGPREGYGGFRGQREGSRGFRGQRDGNRRFRGQREGSRGPRGQRSGGGNKSNRSQNKGQKRSFSKAFGQ
**Q.** How did the “Fold change (+UV/-UV)” value turn out when B3 was run?
**A.** The value was 1.

B4: DHX15_HUMAN (protein, UniProt O43143 1-795, looked up)
ATP-dependent RNA helicase …: MSKRHRLDLGEDYPSGKKRAGTDGKDRDRDRDREDRSKDRDRERDRGDREREREKEKEKELRASTNAMLISAGLPPLKASHSAHSTHSAHSTHSTHSAHSTHAGHAGHTSLPQCINPFTNLPHTPRYYDILKKRLQLPVWEYKDRFTDILVRHQSFVLVGETGSGKTTQIPQWCVEYMRSLPGPKRGVACTQPRRVAAMSVAQRVADEMDVMLGQEVGYSIRFEDCSSAKTILKYMTDGMLLREAMNDPLLERYGVIILDEAHERTLATDILMGVLKEVVRQRSDLKVIVMSATLDAGKFQIYFDNCPLLTIPGRTHPVEIFYTPEPERDYLEAAIRTVIQIHMCEEEEGDLLLFLTGQEEIDEACKRIKREVDDLGPEVGDIKIIPLYSTLPPQQQQRIFEPPPPKKQNGAIGRKVVVSTNIAETSLTIDGVVFVIDPGFAKQKVYNPRIRVESLLVTAISKASAQQRAGRAGRTRPGKCFRLYTEKAYKTEMQDNTYPEILRSNLGSVVLQLKKLGIDDLVHFDFMDPPAPETLMRALELLNYLAALNDDGDLTELGSMMAEFPLDPQLAKMVIASCDYNCSNEVLSITAMLSVPQCFVRPTEAKKAADEAKMRFAHIDGDHLTLLNVYHAFKQNHESVQWCYDNFINYRSLMSADNVRQQLSRIMDRFNLPRRSTDFTSRDYYINIRKALVTGYFMQVAHLERTGHYLTVKDNQVVQLHPSTVLDHKPEWVLYNEFVLTTKNYIRTCTDIKPEWLVKIAPQYYDMSNFPQCEAKRQLDRIIAKLQSKEYSQY
**Q.** How did the “Fold change (+UV/-UV)” value turn out when B4 was run?
**A.** The value was 1.071.

B5: RPN1_HUMAN (protein, UniProt P04843 24-607, looked up)
Dolichyl-diphosphooligosacchar …: ASSEAPPLINEDVKRTVDLSSHLAKVTAEVVLAHLGGGSTSRATSFLLALEPELEARLAHLGVQVKGEDEEENNLEVRETKIKGKSGRFFTVKLPVALDPGAKISVIVETVYTHVLHPYPTQITQSEKQFVVFEGNHYFYSPYPTKTQTMRVKLASRNVESYTKLGNPTRSEDLLDYGPFRDVPAYSQDTFKVHYENNSPFLTITSMTRVIEVSHWGNIAVEENVDLKHTGAVLKGPFSRYDYQRQPDSGISSIRSFKTILPAAAQDVYYRDEIGNVSTSHLLILDDSVEMEIRPRFPLFGGWKTHYIVGYNLPSYEYLYNLGDQYALKMRFVDHVFDEQVIDSLTVKIILPEGAKNIEIDSPYEISRAPDELHYTYLDTFGRPVIVAYKKNLVEQHIQDIVVHYTFNKVLMLQEPLLVVAAFYILFFTVIIYVRLDFSITKDPAAEARMKVACITEQVLTLVNKRIGLYRHFDETVNRYKQSRDISTLNSGKKSLETEHKALTSEIALLQSRLKTEGSDLCDRVSEMQKLDAQVKELVLKSAVEAERLVAGKLKKDTYIENEKLISGKRQELVTKIDHILDAL
**Q.** With B5 as the molecule, how does the “Fold change (+UV/-UV)” value read?
**A.** Its value is 3.

B6: FUS_HUMAN (protein, UniProt P35637 1-526, looked up)
RNA-binding protein FUS: MASNDYTQQATQSYGAYPTQPGQGYSQQSSQPYGQQSYSGYSQSTDTSGYGQSSYSSYGQSQNTGYGTQSTPQGYGSTGGYGSSQSSQSSYGQQSSYPGYGQQPAPSSTSGSYGSSSQSSSYGQPQSGSYSQQPSYGGQQQSYGQQQSYNPPQGYGQQNQYNSSSGGGGGGGGGGNYGQDQSSMSSGGGSGGGYGNQDQSGGGGSGGYGQQDRGGRGRGGSGGGGGGGGGGYNRSSGGYEPRGRGGGRGGRGGMGGSDRGGFNKFGGPRDQGSRHDSEQDNSDNNTIFVQGLGENVTIESVADYFKQIGIIKTNKKTGQPMINLYTDRETGKLKGEATVSFDDPPSAKAAIDWFDGKEFSGNPIKVSFATRRADFNRGGGNGRGGRGRGGPMGRGGYGGGGSGGGGRGGFPSGGGGGGGQQRAGDWKCPNPTCENMNFSWRNECNQCKAPKPDGPGGGPGGSHMGGNYGDDRRGGRGGYDRGGYRGRGGDRGGFRGGRGGGDRGGFGPGKMDSRGEHRQDRRERPY
**Q.** With B6 as the molecule, how does the “Fold change (+UV/-UV)” value read?
**A.** Its value is 0.5.

B7: CDC5L_HUMAN (protein, UniProt Q99459 1-802, looked up)
Cell division cycle 5-like …: MPRIMIKGGVWRNTEDEILKAAVMKYGKNQWSRIASLLHRKSAKQCKARWYEWLDPSIKKTEWSREEEEKLLHLAKLMPTQWRTIAPIIGRTAAQCLEHYEFLLDKAAQRDNEEETTDDPRKLKPGEIDPNPETKPARPDPIDMDEDELEMLSEARARLANTQGKKAKRKAREKQLEEARRLAALQKRRELRAAGIEIQKKRKRKRGVDYNAEIPFEKKPALGFYDTSEENYQALDADFRKLRQQDLDGELRSEKEGRDRKKDKQHLKRKKESDLPSAILQTSGVSEFTKKRSKLVLPAPQISDAELQEVVKVGQASEIARQTAEESGITNSASSTLLSEYNVTNNSVALRTPRTPASQDRILQEAQNLMALTNVDTPLKGGLNTPLHESDFSGVTPQRQVVQTPNTVLSTPFRTPSNGAEGLTPRSGTTPKPVINSTPGRTPLRDKLNINPEDGMADYSDPSYVKQMERESREHLRLGLLGLPAPKNDFEIVLPENAEKELEEREIDDTYIEDAADVDARKQAIRDAERVKEMKRMHKAVQKDLPRPSEVNETILRPLNVEPPLTDLQKSEELIKKEMITMLHYDLLHHPYEPSGNKKGKTVGFGTNNSEHITYLEHNPYEKFSKEELKKAQDVLVQEMEVVKQGMSHGELSSEAYNQVWEECYSQVLYLPGQSRYTRANLASKKDRIESLEKRLEINRGHMTTEAKRAAKMEKKMKILLGGYQSRAMGLMKQLNDLWDQIEQAHLELRTFEELKKHEDSAIPRRLECLKEDVQRQQEREKELQHRYADLLLEKETLKSKF
**Q.** With B7 as the molecule, how does the “Fold change (+UV/-UV)” value read?
**A.** Its value is 0.

B8: NOLC1_HUMAN (protein, UniProt Q14978 1-699, looked up)
Nucleolar and coiled-body …: MADAGIRRVVPSDLYPLVLGFLRDNQLSEVANKFAKATGATQQDANASSLLDIYSFWLKSAKVPERKLQANGPVAKKAKKKASSSDSEDSSEEEEEVQGPPAKKAAVPAKRVGLPPGKAAAKASESSSSEESSDDDDEEDQKKQPVQKGVKPQAKAAKAPPKKAKSSDSDSDSSSEDEPPKNQKPKITPVTVKAQTKAPPKPARAAPKIANGKAASSSSSSSSSSSSDDSEEEKAAATPKKTVPKKQVVAKAPVKAATTPTRKSSSSEDSSSDEEEEQKKPMKNKPGPYSSVPPPSAPPPKKSLGTQPPKKAVEKQQPVESSEDSSDESDSSSEEEKKPPTKAVVSKATTKPPPAKKAAESSSDSSDSDSSEDDEAPSKPAGTTKNSSNKPAVTTKSPAVKPAAAPKQPVGGGQKLLTRKADSSSSEEESSSSEEEKTKKMVATTKPKATAKAALSLPAKQAPQGSRDSSSDSDSSSSEEEEEKTSKSAVKKKPQKVAGGAAPSKPASAKKGKAESSNSSSSDDSSEEEEEKLKGKGSPRPQAPKANGTSALTAQNGKAAKNSEEEEEEKKKAAVVVSKSGSLKKRKQNEAAKEAETPQAKKIKLQTPNTFPKRKKGEKRASSPFRRVREEEIEVDSRVADNSFDAKRGAAGDWGERANQVLKFTKGKSFRHEKTKKKRGSYRGGSISVQVNSIKFDSE
**Q.** How did the “Fold change (+UV/-UV)” value turn out when B8 was run?
**A.** The value was 1.
